# Measured values published in the DeepSol protein solubility set.
# Test: soluble on expression in E. coli; label from the status in PepcDB or PDB records
row,Sequence,soluble on expression in E. coli
1,PSPGGQMHAGISSFQQSNSSGTYGPQMSQYGPQGNYSRPPAYSGVPSASYSGPGPGMGISANNQMHGQGPSQPCGAVPLGRMPSAGMQNRPFPGNMSSMTPSSPGMSQQGGPGMGPPMPTVNRKAQEAAAAVMQAAANSAQSRQGSFPGMNQSGLMASSSPYSQPMNNSSSLMNTQAPPYSMAPAMVNSSAASVGLADMMSPGESKLPLPLKADGKEEGTPQPESKSKDSYSSQGISQPPTPGNLPVPSPMSPSSASISSFHGDESDSISSPGWPKTPSSPKSSSSTTTGEKITKVYELGNEPERKLWVDRYLTFMEERGSPVSSLPAVGKKPLDLFRLYVCVKEIGGLAQVNKNKKWRELATNLNVGTSSSAASSLKKQYIQYLFAFECKIERGEEPPPEVFSTGDTKKQPKLQPPSPANSGSLQGPQTPQSTGSNSMAEVPGDLKPPTPASTPHGQMTPMQGGRSSTISVHDPFSDVSDSSFPKRNSMTPNAPYQQGMSMPDVMGRMPYEPNKDPFGGMRKVPGSSEPFMTQGQMPNSSMQDMYNQSPSGAMSNLGMGQRQQFPYGASYDRRHEPYGQQYPGQGPPSGQPPYGGHQPGLYPQQPNYKRHMDGMYGPPAKRHEGDMYNMQYSSQQQEMYNQYGGSYSGPDRRPIQGQYPYPYSRERMQGPGQIQTHGIPLQMMGGPLQSSSSEGPQQNMWAARNDMPYPYQNRQGPGGPTQAPPYPGMNRTDDMMVPDQRINHESQWPSHVSQRQPYMSSSASMQPITRPPQPSYQTPPSLPNHISRAPSPASFQRSLENRMSPSKSPFLPSMKMQKVMPTVPTSQVTGPPPQPPPIRREITFPPGSVEASQPVLKQRRKITSKDIVTPEAWRVMMSLKSGLLAESTWALDTINILLYDDSTVATFNLSQLSGFLELLVEYFRKCLIDIFGILMEYEVGDPSQKALDHNAARKDDSQSLADDSGKEEEDAECIDDDEEDEEDEEEDSEKTESDEKSSIALTAPDAAADPKEKPKQASKFDKLPIKIVKKNNLFVVDRSDKLGRVQEFNSGLLHWQLGGGDTTEHIQTHFESKMEIPPRRRPPPPLSSAGRKKEQEGKGDSEEQQEKSIIATIDDVLSARPGALPEDANPGPQTESSKFPFGIQQAKSHRNIKLLEDEPRSRDETPLCTIAHWQDSLAKRCICVSNIVRSLSFVPGNDAEMSKHPGLVLILGKLILLHHEHPERKRAPQTYEKEEDEDKGVACSKDEWWWDCLEVLRDNTLVTLANISGQLDLSAYTESICLPILDGLLHWMVCPSAEAQDPFPTVGPNSVLSPQRLVLETLCKLSIQDNNVDLILATPPFSRQEKFYATLVRYVGDRKNPVCREMSMALLSNLAQGDALAARAIAVQKGSIGNLISFLEDGVTMAQYQQSQHNLMHMQPPPLEPPSVDMMCRAAKALLAMARVDENRSEFLLHEGRLLDISISAVLNSLVASVICDVLFQIGQL,soluble
2,MAIPKIASYPLPVSLPTNKVDWRIDASRAVLLIHDMQEYFVHYFDSQAEPIPSLIKHIQQLKAHAKQAGIPVVYTAQPANQDPAERALLSDFWGPGLSEETAIIAPLAPESGDVQLTKWRYSAFKKSPLLDWLRETGRDQLIITGVYAHIGILSTALDAFMFDIQPFVIGDGVADFSLSDHEFSLRYISGRTGAVKSTQQACLEIAAQHSKLTGLSLRTMQHDVAAALNLSVDEVDVQENLLFLGLDSIRAIQLLEKWKAQGADISFAQLMEHVTLQQWWQTIQANLHQPCSA,not soluble
3,MEREKLELPENGKKLLLHSCCAPCSGEVMEAIVASGIDFSIFFYNPNIHPRKEYDLRKDENIRFAEKHGIPFIDADYDMDDWFKRAKGMEMEPERGIRCTMCFDMRFERTALYAYENGFDVISSSLGISRWKNMDQINDSGVRAAAQYPGITYWTYNWRKKGGSARMLEISKREKFYMQEYCGCAYSLRDTNKWRVEHGREKIRIGEKYYGDVTE,not soluble
4,GMGVNMRAETESRIFSVDEYVRPSNGEPIRSVVLETNDSVVVVWHAHPGQEIASHVHPHGQDTWTVISGEAEYHQGNGIVTHLKAGDIAIAKPGQVHGAMNSGPEPFIFVSVVAPGNAGFALAEK,soluble
5,MSLTLVDIHCHILPGIDDGSKDWETSIKLARDAVKDGITHAVCTPHTLNGKYLNHKDDVIRLTENFQDMLDEAKIPLTVFPGQEVRISGDLPDALDNDDILFLDEEGQYMLLEFPSDDVPTYAKDMIFSIQQRGITPIVVHPERNSRILKEPHILQELIEQGCLVQITASSYVGTFGQKIEEMSRRFIEAGQCACFASDAHDLPKRQYEYSAALKKLSNEFGSGRAQEFEDNARAIVNGDNVQLNWRPLKKKKKFWLFEGHHHHHH,not soluble
